This passage reports Kd results from paper PMC11428563, “Systematic design and evaluation of aptamers for VEGF and PlGF biomarkers of Preeclampsia”.

Settings in all cases: protein: commercial; tags: His; chain copies: 2
The target of series [1] is T1, PlGF (Human PlGF / PGF (19-149) Protein, His Tag, Acrobiosystems PGF-H52H5) (human, UniProt P49763-2 19-149).
T1 sequence: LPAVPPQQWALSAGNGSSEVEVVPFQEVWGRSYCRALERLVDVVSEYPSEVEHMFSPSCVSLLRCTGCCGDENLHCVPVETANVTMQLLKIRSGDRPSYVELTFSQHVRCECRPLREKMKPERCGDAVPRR
In words: BLI; kon 3.169e3 1/Ms; koff 2.150e-1 1/s; BLI (Octet R4, anti-penta-His HIS1K sensors): protein loaded in phosphate buffer pH 7.4 (PlGF 2.5 ug/mL, VEGF 10 ug/mL); aptamers 0-20 uM in 1X Sartorius Kinetics Buffer; 1:1 global fit, triplicate; temperature not stated. For orientation: In BLI a coated tip is dipped into the sample, and binding shifts an interference pattern.

In series [2] the target is T1, PlGF (Human PlGF / PGF (19-149) …). In words: BLI; kon 1.772e4 1/Ms; koff 2.049e-1 1/s; BLI (Octet R4, anti-penta-His HIS1K sensors): protein loaded in phosphate buffer pH 7.4 (PlGF 2.5 ug/mL, VEGF 10 ug/mL); aptamers 0-20 uM in 1X Sartorius Kinetics Buffer; 1:1 global fit, triplicate; temperature not stated.
The target is the same in series [3]. In words: BLI; kon 2.746e3 1/Ms; koff 5.548e-7 1/s; BLI (Octet R4, anti-penta-His HIS1K sensors): protein loaded in phosphate buffer pH 7.4 (PlGF 2.5 ug/mL, VEGF 10 ug/mL); aptamers 0-20 uM in 1X Sartorius Kinetics Buffer; 1:1 global fit, triplicate; temperature not stated.

What is called Kd is the free concentration of one partner at which half of the binding sites on the other are occupied at equilibrium, for simple one-to-one binding. A higher Kd goes with a looser complex.

In series [1], CGAAGAGACGCAGAGAAGC (ssRNA) [PlGF-Apt4] returned a Kd of 49.7 µM.
Take ACAGGCACA (ssRNA) [PlGF-Apt2]: the affinity in series [2], expressed as Kd, was 17.7 µM.
With AGAGAACGCAAGAGA (ssRNA) [PlGF-Apt3], binding in series [3] was characterised by a dissociation constant (Kd) of 0.000298 µM.
